# In PMC11582362 (2023):
# B1: full length ADAR1 p110, wild type (FLAG-tagged and HA-tagged copies) [human] / itself (parent complex)
# chain: MAEIKEKICDYLFNVSDSSALNLAKNIGLTKARDINAVLIDMERQGDVYRQGTTPPIWHLTDKKRERMQIKRNTNSVPETAPAAIPETKRNAEFLTCNIPTSNASNNMVTTEKVENGQEPVIKLENRQEARPEPARLKPPVHYNGPSKAGYVDFENGQWATDDIPDDLNSIRAAPGEFRAIMEMPSFYSHGLPRCSPYKKLTECQLKNPISGLLEYAQFASQTCEFNMIEQSGPPHEPRFKFQVVINGREFPPAEAGSKKVAKQDAAMKAMTILLEEAKAKDSGKSEESSHYSTEKESEKTAESQTPTPSATSFFSGKSPVTTLLECMHKLGNSCEFRLLSKEGPAHEPKFQYCVAVGAQTFPSVSAPSKKVAKQMAAEEAMKALHGEATNSMASDNQPEGMISESLDNLESMMPNKVRKIGELVRYLNTNPVGGLLEYARSHGFAAEFKLVDQSGPPHEPKFVYQAKVGGRWFPAVCAHSKKQGKQEAADAALRVLIGENEKAERMGFTEVTPVTGASLRRTMLLLSRSPEAQPKTLPLTGSTFHDQIAMLSHRCFNTLTNSFQPSLLGRKILAAIIMKKDSEDMGVVVSLGTGNRCVKGDSLSLKGETVNDCHAEIISRRGFIRFLYSELMKYNSQTAKDSIFEPAKGGEKLQIKKTVSFHLYISTAPCGDGALFDKSCSDRAMESTESRHYPVFENPKQGKLRTKVENGEGTIPVESSDIVPTWDGIRLGERLRTMSCSDKILRWNVLGLQGALLTHFLQPIYLKSVTLGYLFSQGHLTRAICCRVTRDGSAFEDGLRHPFIVNHPKVGRVSIYDSKRQSGKTKETSVNWCLADGYDLEILDGTRGTVDGPRNELSRVSKKNIFLLFKKLCSFRYRRDLLRLSYGEAKKAARDYETAKNYFKKGLKDMGYGNWISKPQEEKNFYLCPV
# Variants of: B1
# Assay: co-immunoprecipitation (anti-FLAG IP, anti-HA western blot, bands quantified with ImageJ); HEK293T cells; in the presence of RNases; n = 3; parent: 70; read off a plot
row,response [%],Variant
1,~10,"chain 1 V452A, chain 1 D453Q, chain 1 W473V, chain 1 C478S"
